Target: human GnRH receptor expressed on the surface of OC-3-VGH cancer cells (human) (UniProt P30968)
Assay: cell-based or functional assay

Chain of UniProt P30968 (P30968 whole entry): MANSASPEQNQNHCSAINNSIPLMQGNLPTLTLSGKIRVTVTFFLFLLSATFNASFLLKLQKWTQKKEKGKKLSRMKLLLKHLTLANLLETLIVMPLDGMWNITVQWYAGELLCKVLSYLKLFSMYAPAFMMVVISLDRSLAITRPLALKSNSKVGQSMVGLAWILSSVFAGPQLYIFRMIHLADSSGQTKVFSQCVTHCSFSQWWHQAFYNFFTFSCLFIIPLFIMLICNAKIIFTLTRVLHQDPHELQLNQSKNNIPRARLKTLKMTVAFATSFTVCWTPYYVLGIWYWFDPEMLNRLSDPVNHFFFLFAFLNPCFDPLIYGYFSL

GnRH gene expression in cancer cells: 50%
Substance: antide (peptide)

Reference: patent US20200354462A1
